Test results: article PMC12650828

Target: cell-surface nucleolin (NCL) (UniProt P19338)
Assay: competition
Conditions: MST: 300 nM FAM-aptamer, NCL 1.95 nM-4 uM, binding buffer not specified, 25 C, 15 min; AP1-AP6 and Mut folded in 100 mM KCl, 10 mM K3PO4 pH 7.0; AS1411 in …; scale: % decrease of anti-NCL fluorescence at 4 uM

Sequence of cell-surface nucleolin (NCL) (P19338 whole entry): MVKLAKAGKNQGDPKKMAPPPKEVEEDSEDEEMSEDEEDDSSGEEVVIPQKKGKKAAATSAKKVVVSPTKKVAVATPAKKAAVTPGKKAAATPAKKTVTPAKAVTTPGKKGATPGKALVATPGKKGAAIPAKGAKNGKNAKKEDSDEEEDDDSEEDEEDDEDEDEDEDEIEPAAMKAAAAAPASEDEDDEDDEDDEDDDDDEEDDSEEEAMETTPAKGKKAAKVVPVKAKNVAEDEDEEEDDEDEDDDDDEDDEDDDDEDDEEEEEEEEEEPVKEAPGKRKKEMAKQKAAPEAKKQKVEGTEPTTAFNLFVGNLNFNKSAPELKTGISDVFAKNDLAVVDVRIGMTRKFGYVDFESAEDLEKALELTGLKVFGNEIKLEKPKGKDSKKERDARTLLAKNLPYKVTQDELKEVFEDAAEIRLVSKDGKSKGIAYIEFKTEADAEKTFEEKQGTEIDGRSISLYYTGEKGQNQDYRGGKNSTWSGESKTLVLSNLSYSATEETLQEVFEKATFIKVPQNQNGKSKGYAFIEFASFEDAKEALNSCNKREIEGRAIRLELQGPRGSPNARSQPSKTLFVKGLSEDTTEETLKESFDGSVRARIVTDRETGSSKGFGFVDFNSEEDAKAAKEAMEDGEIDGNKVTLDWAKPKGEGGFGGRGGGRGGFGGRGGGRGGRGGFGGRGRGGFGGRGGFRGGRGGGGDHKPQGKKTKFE

Sequence: GUUAGGGUUUGGGAUUG [AP1]
- binding signal: 50
